Laboratory results from the DeepSol protein solubility set.

Experiment: soluble on expression in E. coli; label from the status in PepcDB or PDB records
For “MGSDKIHHHHHHMFGFRLSGGKGILQRSQVALVVMESTGGLEIPAAKAIRRAGIAVIIANPRQTHQFAQLQPLTKTDAKDAKMPAFFAQMTAQKEDSQTMPYQPPTEAEEVLEALVNRRNQSADMRTAEKNRLHQVHETQVGSVKQLIAHFDRLIDELDKQIDDHTHTHFDGKAQVAEQIKGIGSITTATLMAMLPELGRLSHKRIASLAGIAPHPRESEETKFKSRCFGGRSAVRKALYMATVAATRFEPLIRDFYQRLLSKGKPYKVAVTACMRKLLTISNTRMRDYFAENDTAENGIRTA”, the “soluble on expression in E. coli” value was “not soluble”. For “MGSDKIHHHHHHMFKIVYPNAKDFFSFINSITNVTDSIILNFTEDGIFSRHLTEDKVLMAIMRIPKDVLSEYSIDSPTSVKLDVSSVKKILSKASSKKATIELTETDSGLKIIIRDEKSGAKSTIYIKAEKGQVEQLTEPKVNLAVNFTTDESVLNVIAADVTLVGEEMRISTEEDKIKIEAGEEGKRYVAFLMKDKPLKELSIDTSASSSYSAEMFKDAVKGLRGFSAPTMVSFGENLPMKIDVEAVSGGHMIFWIAPRL”, the “soluble on expression in E. coli” value was “not soluble”. For “MGSDKIHHHHHHMFLRFFSELRQAKVPVSLREYLLLMEALDKDVIDRSVEDFYFLSRASLVKDEKNLDKFDRVFSHVFKGLETVNDGLAADIPEEWLKALTEKFLTDEEKAQIEALGGFEKLMETLQERLREQKKRHEGGNKMIGSGGTSPFGNNGYNPEGVRIGQDKGRHGRAVKVWDKREYKNLDDSVELGTRNIKVALRRLRKFARTGAAEELDLNGTIKGTAEKGYLDIQLRPERRNAIKVLLFFDIGGSMDSHIKLCEELFSAARTEFKNLEFYYFHNCLYETVWKDNKRRQTEKIPTFDVLHKFPADYKVIFVGDATMSPYEITYPGGSVEHWNEEPGAIWMQRVTEIYQSCIWLNPTPERHWDYTQSIGVMRQIMADRMFPLTIEGLDKAMRELVRG”, the “soluble on expression in E. coli” value was “not soluble”. For “MGSDKIHHHHHHMFPDGEISDVVVIGGGPAGAICALALARAGVDVKLMYWGGYAPGGIELVSGRGRHFIEQYCPDFFSEVVHGIEIHETASLWDTAEPVIFNAMFNPWGAGVAIERSLLDGALRNLASGAGGTIIPDAKVVDVERQHDRWRLIARSSEDASSNETTSRAGEFAIYARFIVLATGRVPLPFFDHAPVAESSQIALMTSLQARIAPRHTLYVEGTRNGWWYALPAEKGYFASFCIGRNELKQRQSRLKDFFFQELQCTRLLAPLSAGAFDQRPIAGRMAGATMFPAMGGDAWIAVGDATAAPDPLSGTGIEWAIESAQLGADMLLEALHGSKGNVLFDLPRYENTIRRRIAAQEKTAAYHYHRLKEIRET”, the “soluble on expression in E. coli” value was “not soluble”. In the case of “MGSDKIHHHHHHMFSSPLELFKALTQIPHSSGDTTLMQKFLIQSAQSFGALVSVDSAGNILCQKGDSPRFCLQAHYDMVCVGKAPEIELFEEGGWLRAKDSSLGADNGAALACFLILLKQESSIEILFTNDEEIGMLGAKALELTPSAPLILNVDSESLQEVVISCAGGYDLELEIPATFKETPAEGYLYELSTQNFLGGHSGIDIIKNHPNALVEMAHLLASLPVEILSFEGGEKSNSIPVHAKASLFSSRPLEHLPSWIRATARPLSSPLKALDQTPLLDLLRALHSGIFAYDEESSGVLDSLNISLLKAHEKGWTLTLMGRANDKERLWRNLERARLIARAFGIKEDRLKDFYPPWEKAKSSSYLEKIKEVYERELGVCHVRSIHAGLECAVLQEKLPKAEFISIGPTILHPHSTREALDIKSFERFWEILQIITKVL”, the “soluble on expression in E. coli” value is reported as “not soluble”. In the case of “MGSDKIHHHHHHMGEIVLAAKCTHVPTMLMSEQEGPVKGKRQAAIDGHLEIARRARALGADTVVICDTHWVINAGFHINANSRFQGLFTSNEFPQFIQNMPYDYEGNPGLGDAIAKEASARGAYTLAHHLDSLELEYGTLVPMRFMSREHKMKVVSVAAWCTVHDHDESRIVGEAIRAAVEASNSKVLLVASGSLSHKIWPNKDYAANNGTFTISSEFNRQMDLHVLEMWKRGDHATFLKMLGDYARFCCGEGSMHDTAMLYGALGWDSYDKPCEVVTEYFPSSGTGQTNVIFPV”, the “soluble on expression in E. coli” value is reported as “not soluble”. With “MGSDKIHHHHHHMGIMENPLIKPAALENTHQDGPHPQAEEPYYLPFGDEVSIFTQCHRRHLAVMLKGPTGCGKTRFVEHMAWRMKRPLIIVSCHDDLTAADLVGRFLIRDNATIWQDGPLTRAVRVGAICYLDEVVEARQDAVVVIHPLTDYRRVLPIDKTGELIEATPGFQLVISYNPGYQHVTKDLKPSTRQRFVALDFDFPPPEREAEIVIHESGAQPAVAYDLVALGGRIRGLADRGLAEVPSTRLLVATARLIANGIPPRLACHVALVSPLSDDPALVAAMRDLVDATLLD” the “soluble on expression in E. coli” value was “not soluble”. For “MGSDKIHHHHHHMGIVGLPNAGKSSFFNFLTDNSVPAESFPFCTIEPNVGILVVPDERIEILAKNEGSKKVVHPFVEVVDIAGLVKGASKGEGLGNQFLDHISKVDVIAHVVRLFEDGRVSHPYQNVDPKRDIEIVETELILKDLETVQKRLEKRMKVARTGDKEAKREVELLQNLREFLSQGKKASKFPRHDRFEEEVIESLFLLTDKPQILVFNVDELDEEKRKLIEEIVKEKDEEYIIINVKLEEELKFLPEEEAEVFRREYNLFGDKRKEFFEKVLKLLNLIRFLTATQNEARSWTIKKGSTAYEAAGLIHSDIQKGFIKVEVIPFERYVEFGSLKKAREAGAVETHGKDYIVREGDVIHFLFRA”, the “soluble on expression in E. coli” value was “not soluble”. For “MGSDKIHHHHHHMGLALCGAAAQAQEKPNFLIIQCDHLTQRVVGAYGQTQGCTLPIDEVASRGVIFSNAYVGCPLSQPSRAALWSGMMPHQTNVRSNSSEPVNTRLPENVPTLGSLFSESGYEAVHFGKTHDMGSLRGFKHKEPVAKPFTDPEFPVNNDSFLDVGTCEDAVAYLSNPPKEPFICIADFQNPHNICGFIGENAGVHTDRPISGPLPELPDNFDVEDWSNIPTPVQYICCSHRRMTQAAHWNEENYRHYIAAFQHYTKMVSKQVDSVLKALYSTPAGRNTIVVIMADHGDGMASHRMVTKHISFYDEMTNVPFIFAGPGIKQQKKPVDHLLTQPTLDLLPTLCDLAGIAVPAEKAGISLAPTLRGEKQKKSHPYVVSEWHSEYEYVTTPGRMVRGPRYKYTHYLEGNGEELYDMKKDPGERKNLAKDPKYSKILAEHRALLDDYITRSKDDYRSLKVDADPRCRNHTPGYPSHEGPGAREILKRK”, the “soluble on expression in E. coli” value was “not soluble”. For “MGSDKIHHHHHHMGLFDFLKKGLQKTKETFFGRVVKLLKGKKLDDETREELEELLIQADVGVETTEYILERLEEKDGDALESLKEIILEILNFDTKLNVPPEPPFVIMVVGVNGTGKTTSCGKLAKMFVDEGKSVVLAAADTFRAAAIEQLKIWGERVGATVISHSEGADPAAVAFDAVAHALARNKDVVIIDTAGRLHTKKNLMEELRKVHRVVKKKIPDAPHETLLVIDATTGQNGLVQAKIFKEAVNVTGIILTKLDGTAKGGITLAIARELGIPIKFIGVGEKAEDLRPFDPEAFVEVLLSE”, the “soluble on expression in E. coli” value was “soluble”. In the case of “MGSDKIHHHHHHMGMILNGYLEVINHLQQLPLALILIFNLKIMKQIIYVFLLTVLSSCDSYLSKVPSPSTSAPINNVEQLVAIYDNATAFINETNPFACYSNDDADLTAELYKADPSAFAISSTVFYNILHTAGIASQASDGLWNGEYSNIFKANTIINNVDKVTGDESEKIKLKCNAHFLRAYSYFVLAQYYCLPYCEANKNALGLPKRLNTDFEESIARVSLDEIYQLILDDLEIAAVTPDKSVNPNFPWRICQATVNALLSRVYLTMGNYKEAQATAEKALEGAPELLDFNELGYAPVESYPEMEGLPAQDVYNCETHKWTTIKYLYWKEFLFPRFTYARSQWIIPSDDLVSLYDQQNDRRFKLFFVEHGNRRMGVPYEAYRYNQFYDGRYIISGLTTAEMLLNKAEAQIRQGMWQEGLKTLDVLREKRYEAGTYISLSAGNQSEALSIVLAERRREMPFSMRIPDIKRYGVNEILEDDVTVVKNFFEISMSEVFIDKPKTYTIPSNSLLWAMPINDVEIGSSNGAIQQNRYE”, the “soluble on expression in E. coli” value is reported as “not soluble”. In the case of “MGSDKIHHHHHHMGNEVYDAVVVGAGFAGLTAARELSRQGLAVHIVEARDRIGGRTWLDHRLGRDLEIGGTWVHWTQPHVWAELTRYGLETTPSPEPERAFWWADGCRHEGRPDELLGLIGQTNEEFVRDSRKYFPEPFRPMARDDFKSIDHVSVQARIREQFPAGAPRDILESFWALNFNGPLDNAALTQAFRWVALTNGDWAVNFEACATYKIVGGTAALAASMLADSGAGIQYGFKVEAVAEDADVVEIRSADGRTVRARTAIVTVPLHALNAVDFEPPLPAAKAEAASLGQVSKGAKVWFRLRGEHAPFVALGGADWPLNFFQVEYALDGDTIAVGFGPDAAKIEVEDPVAVQAQLARLVPGAEVVAVASHNWVDDPLSGETWPMHRTGFLSTHLPAMQASHGLVLFAGSDIANGWCGFIDGAIESGMGAALDAASLLAGGRP”, the “soluble on expression in E. coli” value is reported as “not soluble”. For “MGSDKIHHHHHHMGNIEIKRVIAHHMDLGATKPTFLNNVIDISQEEMQDVIVFFGNHVKKALTTAQLKTCVFKNEDDEVYKYCKELAEDQSDDKLFVRVTRRMTIKLFYNMKRTSSTSSATLIFLHYFNVDSGKDYLGILKMDPNDGIELDPERVVFKVRKHMLPNVKERLHKSAFIKLDEKLFAEESHLYVLDKQQKMDGISKFFLEAFLNAKEVNSDKKTTAFFNTAVMEVARSEKVPNMFAIAKKVSDSMTEGKYIKVDSMLEEVLHDFIPGEEDRFDFIERVKQQMKKKNEDVQFEFTVEKEKEAISFLHNDDKSIQLRFKSILLGTDVFYDEEEDEDGNKFIVLKIREKNIESNFEFKK”, the “soluble on expression in E. coli” value was “not soluble”. In the case of “MGSDKIHHHHHHMGNPSWINVFALVDYRSSSDTLYRVEEGLIPLETFDEINSGDPVVLSSFLNAYRGEDLSLLVIWNHGDWWRGESQKQVKGVAYDFVNLDFFTIKEIKSVLRDSPVTVLGFDACLMGTFEILWELKDCARYVVVSSKEAPGNGWDYSVLRYSKDLSSLLSNIVKRYGEIYGTEYSLSVWDTSKLDEIMLWLDRVAQYMIENNLSPWEFEVERRTAGGSTTELVELGSFAKSLQNSSDVVLREYGEGLYSAIVSARVYGTPDNYTDLTIYLPQNMKNPEYWDDFVALSDFTSESSWDDLIEHWRDKN”, the “soluble on expression in E. coli” value is reported as “not soluble”. For “MGSDKIHHHHHHMGNVSTFSIPGPARIPSAATTPAPHPWNRYVALGDSFTEGYGDPEPQSPGGVRGWADRVAEELSLGHQDFAYANLAVRGRLLQQIMDDQLGPALELRPDLVTLSAGGNDLVFRGSDPDKLAERLDPAIGLLSATGATVVLFTGPDWGNTPVFGRIRGKVAIFNENLRTIAARHDGVVADLWTLRQLAAPHMWDPDRLHFSPLGHHTIAAMVLETLNVPHTLKPLEPKVLPVSSWREARSSDLVWAKDYLFPWVVRRVRQRPANLGLKAKRPEPGPIFGPGVAHGPFPAGPLTAGKP”, the “soluble on expression in E. coli” value was “not soluble”. For “MGSDKIHHHHHHMGQPFVHPTGVTIYNPEKCFNGYTIMQAPGLGCVLIDMNGNVVRVFKDLHGFPNKLLPGGYVMGSRGRRNGKFGYQDQIDLVQVDWDGQVVWEFAKKEYIEDEGEKPQWMARQHHDYQREGNPVGYYVPGMECKTNSGNTLILSHQNCYHKKISDKQLLDDVIIEVDWDGNIVWEWHAVDHFHEYGFSAAAKLALYRNPNMHEAGGGMGDWMHINSASVLGPNKWYDKGDERFHPDNIIWDAREANIMAIISKETGKVVWKMGPDFAQDKKLRKIGQIIGQHHVHMIPQGLPGAGNILIFDNGGWAGYGAPNNVSKDGTKVDMADRSRVLELNPVTMEVVWQLKASELMDYGQPGISDYRFYSPLTSAAQRLPNGNTLITEGCGGRFFEVTRMKEVVWEFISPFNANPATIYYRAYRYPYSYVPQLPEPKETPVPMLDIRKFRVPGAASCEVQHVVGVEGTIGYPAMQQACVAAADQDLSLKDDDDDDLFSRSF”, the “soluble on expression in E. coli” value was “not soluble”.
